# T1: MD-2 (Homo sapiens, UniProt Q9Y6Y9)
# T1 construct: expressed in transfected cells; host or cells: HEK293
# T1 sequence (Q9Y6Y9 19-160): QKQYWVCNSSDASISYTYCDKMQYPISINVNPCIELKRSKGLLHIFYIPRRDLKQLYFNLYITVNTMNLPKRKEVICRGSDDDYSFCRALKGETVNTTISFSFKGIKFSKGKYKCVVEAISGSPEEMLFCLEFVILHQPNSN
# How the values were obtained:
# [1] = biological target: T1, MD-2; test: Co-immunoprecipitation with Flag-tagged wild-type MD-2 in HEK293 cells; assay type: binding; conditions: Myc-tagged protein with Flag-tagged MD-2, co-immunoprecipitation
# Method: (A) HEK293 cells were transiently transfected with plasmids encoding for Flag-tagged MD-2 (lanes 1-4) in combination with either a Myc-tagged MD-2 (lanes 1 and 3) or a Myc-tagged MD-2s (lanes 2 and 4) expressing plasmid. Co-immunoprecipitation experiments were then performed using an anti-Flag antibody (lanes 3-4) or an IgG isotype control antibody (lane 1-2). Samples were fractionated by SDS-PAGE and immunoblotting with an anti-Myc antibody was performed. (B) Structural analysis of MD-2. Structural features representing the TLR4 binding sites (red); the ligand contacts (dark blue); the ligand binding pocket (light blue) and the TLR4 secondary contacts (pink) are illustrated. The residues deleted in MD-2s (yellow) are also shown. (C) HEK293 cells were transiently transfected with plasmids encoding for Myc-tagged MD-2 (lanes 3 and 4) or a Myc-tagged MD-2s (lanes 5 and 6) expressing plasmid and treated with LPS-biotin as indicated. Co-immunoprecipitation experiments were then performed using an anti-Myc antibody. […]
# HEK 293 cells were seeded into 100 mm dishes (1.5×10^6) 24 h prior to transfection. […] For immunoblotting, primary antibodies were detected using horseradish peroxidase-conjugated secondary antibodies, followed by enhanced chemiluminescence (Amersham Biosciences). […]
# [2] = biological target: T2, TLR4 (Homo sapiens, UniProt O00206); test: IL-8 secretion by HEK293 TLR4 reporter cells after LPS; assay type: cell-based
# T2 construct: expressed in transfected cells; host or cells: HEK293
# Method: (A) HEK-293 cells stably transfected with TLR4 and a NF-κB reporter gene were treated with supernatants containing either MD-2 or MD-2s as described in the examples herein. Cells were left untreated or stimulated with LPS for 24 h. Mean relative stimulation of luciferase activity±S.D. for a representative experiment, each performed in triplicate, is shown. (B) HEK-293 cells stably transfected with TLR4 and a NF-κB reporter gene were transiently transfected with plasmids encoding for either MD-2, MD-2s or CD14 as shown. 24 h later, cells were left untreated or stimulated with LPS (250 ng/ml) for 6 h. Mean relative stimulation of luciferase activity±SD for a representative experiment, each performed in triplicate, is shown. (C) and (D) Supernatants were also collected and measured for IL-8 secretion.
# The requirement for MD-2s in LPS mediated NF-κB activation was assessed. It has been shown that the soluble form of wild-type MD-2 confers LPS responsiveness to cells expressing TLR4; therefore, it was investigated if soluble MD-2s was also bioactive. Culture supernatants were obtained from HEK293 cells transiently expressing control vector, MD-2, or MD-2s, and incubated with HEK293 cells stably transfected with TLR4 and an NF-κB-dependent luciferase reporter gene. […]
# [3] = biological target: T2, TLR4; test: Co-immunoprecipitation with Flag-tagged TLR4 in HEK293 cells; assay type: binding; conditions: Myc-tagged protein, anti-Flag co-immunoprecipitation
# Method: (A) Cells stably expressing CFP-tagged TLR4 were transiently transfected with plasmids encoding wild-type MD-2 (upper panels) or MD-2s (lower panels). 24 h later, cells were incubated with an anti-Myc antibody and cross-liked with Alexa 647-conjugated anti-mouse polyclonal secondary antibody. (B) HEK293 cells were transiently transfected with a plasmid encoding for Flag-tagged TLR4 (lane 2) and cotransfected with either a Myc-tagged MD-2 (lane 3) or a Myc-tagged MD-2s (lanes 1 and 4) expressing plasmid. Co-immunoprecipitation experiments were then performed using an anti-Flag antibody (lanes 2-4) or an IgG isotype control antibody (lane 1). Samples were fractionated by SDS-PAGE and immunoblotting with an anti-Myc antibody was performed. Experiment shown is representative of 4 separate experiments.
# HEK 293 cells were seeded into 100 mm dishes (1.5×10^6) 24 h prior to transfection. Transfections were performed according to the manufacturer's instructions using lipofectamine. […] For immunoblotting, primary antibodies were detected using horseradish peroxidase-conjugated secondary antibodies, followed by enhanced chemiluminescence (Amersham Biosciences).
# To address this possibility, co-localization studies to examine the cellular distribution of MD-2s with respect to TLR4 were performed. […] Next whether MD-2s is physically associated with TLR4 was assessed. […]
# T2 sequence (O00206 24-839): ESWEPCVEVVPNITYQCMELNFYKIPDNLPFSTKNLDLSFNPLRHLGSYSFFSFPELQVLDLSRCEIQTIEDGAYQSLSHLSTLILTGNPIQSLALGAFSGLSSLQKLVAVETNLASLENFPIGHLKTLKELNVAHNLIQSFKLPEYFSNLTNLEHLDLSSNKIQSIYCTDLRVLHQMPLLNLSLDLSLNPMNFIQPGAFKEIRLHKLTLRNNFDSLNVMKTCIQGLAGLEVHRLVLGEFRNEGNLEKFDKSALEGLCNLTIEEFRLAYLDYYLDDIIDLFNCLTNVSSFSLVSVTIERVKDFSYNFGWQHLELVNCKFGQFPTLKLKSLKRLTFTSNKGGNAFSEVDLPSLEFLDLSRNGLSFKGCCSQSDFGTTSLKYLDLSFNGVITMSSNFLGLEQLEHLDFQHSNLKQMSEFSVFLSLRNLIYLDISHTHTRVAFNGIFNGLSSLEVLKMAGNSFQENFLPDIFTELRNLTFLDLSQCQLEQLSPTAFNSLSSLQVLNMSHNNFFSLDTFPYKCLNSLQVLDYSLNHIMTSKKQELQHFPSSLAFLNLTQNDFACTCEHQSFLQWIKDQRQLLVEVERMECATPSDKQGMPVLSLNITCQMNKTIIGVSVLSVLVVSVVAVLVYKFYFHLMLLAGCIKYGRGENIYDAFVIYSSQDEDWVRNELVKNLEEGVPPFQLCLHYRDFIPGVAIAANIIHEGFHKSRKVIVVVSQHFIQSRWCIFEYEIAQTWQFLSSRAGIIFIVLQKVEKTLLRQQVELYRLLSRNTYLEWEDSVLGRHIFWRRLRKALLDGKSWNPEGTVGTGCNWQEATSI
Molecule,Interaction with wild-type MD-2 [1],LPS-dependent IL-8 secretion conferred by soluble protein ([2]; culture supernatants added to HEK293 TLR4 reporter cells),LPS-mediated IL-8 secretion on transient expression ([2]; plasmid transfected with CD14 into HEK293 TLR4/NF-κB reporter cells),Interaction with TLR4 [3]
"MD-2: full-length human wild-type MD-2, co-receptor of TLR4 [reference compound]",can homodimerise,,,
"MD-2s: alternatively spliced isoform of human MD-2 lacking exon 2, with D38G substitution; expressed and secreted protein sequences in Table 1 (protein, listed as Homo sapiens) chain 1: MLPFLFFSTLFSSIFTEAQKQYWVCNSSDASISYTYCGRDLKQLYFNLYITVNTMNLPKRKEVICRGSDDDYSFCRALKGETVNTTISFSFKGIKFSKGKYKCVVEAISGSPEEMLFCLEFVILHQPNSN chain 2: EAQKQYWVCNSSDASISYTYCGRDLKQLYFNLYITVNTMNLPKRKEVICRGSDDDYSFCRALKGETVNTTISFSFKGIKFSKGKYKCVVEAISGSPEEMLFCLEFVILHQPNSN",associates with wild-type MD-2,could not confer LPS responsiveness,unable to induce,direct interaction between MD-2s and TLR4 was observed

# Source: US9512196B2, “Short-form human MD-2 as a negative regulator of toll-like receptor 4 signaling” (Cedars-Sinai Medical Center, priority 2008, dated 2016)
